Legend:
[1] = biological target: the molecule itself; assay: SEC-MALS; fraction B1’ of GephFL, 100 μL at 1.2 mg/mL, Superose 6 Increase 10/300 GL, 20 mM HEPES pH 8.0, 150 mM NaCl, 1 mM EDTA, 5 mM β-mercaptoethanol
[2] = biological target: the molecule itself; assay: SEC-MALS; fraction A1 of GephFL, 100 μL at 1.3 mg/mL, Superose 6 Increase 10/300 GL, 20 mM HEPES pH 8.0, 150 mM NaCl, 1 mM EDTA, 5 mM β-mercaptoethanol
[3] = biological target: the molecule itself; assay: SEC-MALS; fraction A2’ of GephFL, 100 μL at 1.3 mg/mL, Superose 6 Increase 10/300 GL, 20 mM HEPES pH 8.0, 150 mM NaCl, 1 mM EDTA, 5 mM β-mercaptoethanol

B1: Full-length gephyrin, splice variant P1 (natural protein)
chain: MAHHHHHHGGSSGGSSEFMATEGMILTNHDHQIRVGVLTVSDSCFRNLAEDRSGINLKDLVQDPSLLGGTISAYKIVPDEIEEIKETLIDWCDEKELNLILTTGGTGFAPRDVTPEATKEVIEREAPGMALAMLMGSLNVTPLGMLSRPVCGIRGKTLIINLPGSKKGSQECFQFILPALPHAIDLLRDAIVKVKEVHDELEDLPSPPPPLSPPPTTSPHKQTEDKGVQCEEEEEEKKDSGVASTEDSSSSHITAAALAAKIPDSIISRGVQVLPRDTASLSTTPSESPRAQATSRLSTASCPTPKVQSRCSSKENILRASHSAVDITKVARRHRMSPFPLTSMDKAFITVLEMTPVLGTEIINYRDGMGRVLAQDVYAKDNLPPFPASVKDGYAVRAADGPGDRFIIGESQAGEQPTQTVMPGQVMRVTTGAPIPCGADAVVQVEDTELIRESDDGTEELEVRILVQARPGQDIRPIGHDIKRGECVLAKGTHMGPSEIGLLATVGVTEVEVNKFPVVAVMSTGNELLNPEDDLLPGKIRDSNRSTLLATIQEHGYPTINLGIVGDNPDDLLNALNEGISRADVIITSGGVSMGEKDYLKQVLDIDLHAQIHFGRVFMKPGLPTTFATLDIDGVRKIIFALPGNPVSAVVTCNLFVVPALRKMQGILDPRPTIIKARLSCDVKLDPRPEYHRCILTWHHQEPLPWAQSTGNQMSSRLMSMRSANGLLMLPPKTEQYVELHKGEVVDVMVIGRL
stoichiometry N [1]: 2 | stoichiometry N [2]: ~6 | stoichiometry N [3]: ~4
